The results in this text go back to publication PMC6025902 (Science Advances, 2018).

The target of the assay is monomeric amyloid-β peptide 1–42 (Aβ42) (human, UniProt P05067 672-713). Briefly: ITC. (In ITC the heat of successive injections is recorded.)

B1: S100B protein (natural protein)
chain: MSELEKAMVALIDVFHQYSGREGDKHKLKKSELKELINNELSHFLEEIKEQEVVDKVMETLDNDGDGECDFQEFMAFVAMVTTACHEFFEHE
As a reminder, the Kd is a measure of binding affinity in units of concentration. What is called stoichiometry N is a count of units in the complex or per binding partner. For the molecule B1, the Kd is 590 ± 230 nM, the dH was -0.947 ± 0.0295 kcal/mol and the “stoichiometry N” value stood at 2.37 ± 0.07.
